Data reported in the supplement of paper PMC9170038.

Tested on: MS2 coat protein
Assay: apparent KD of MS2 coat protein; designed switch direction (-1 OFF switch, 1 ON switch): -1; higher = weaker reporter binding
How it was run: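 An oligonucleotide input, 200 uM small-molecule ligand, or no input was present during titration of SNAP-549-labelled MS2 coat protein, which was doubled from 0.7 or 1.5 nM to 3 µM. Designed RNA switches had been transcribed on Illumina chips by stalled E. coli RNA polymerase. Apparent KD per design is the median over clusters of curves fitted to normalised cluster fluorescence.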

[1] = Eterna round: R95, input ligand: FMN 200 uM
[2] = Eterna round: R95, input ligand: microRNA oligo, concentration not stated
[3] = Eterna round: R95, input ligand: none
[4] = input ligand: microRNA oligo, concentration not stated

Sequence | apparent KD of MS2 coat protein (input ligand: FMN 200 uM) [nM] | apparent KD of MS2 coat protein (input ligand: none) [nM] | apparent KD of MS2 coat protein [1] [nM] | apparent KD of MS2 coat protein [2] [nM] | apparent KD of MS2 coat protein [3] [nM] | apparent KD of MS2 coat protein [4] [nM]
ACUUAUAGAGGAUAUACAGUUAAUUACAUGAGGAUCACCCAUGUUCUUCAAUGUAUAUAAGUAGAAGGCUAAGGAA [Ex5 Malc#5 mod] (Eterna round: R97, puzzle: Exclusion 5) | 64.3 | 16.7 | – | – | – | –
AGUAGGUCUACCUUGGUGGAUCUGCAUUUAAGCAGGUGUACAUGAGGAUCACCCAUGUCCUCAUUUGCUCGUCUUAU [JL turnoff v2 99.30] (puzzle: Sensor v3, turn-off variant 2) | – | – | 453 | 342 | 492 | –
AUCCCGCGAGGAUAUACAUGAGGAUCACCCAUGUAGGUUCUGGAUGGGCGAAAUUUGUGUAGAAGGCGCACCAA [Tibeaqu] (Eterna round: R96, puzzle: Exclusion 3) | 38.4 | 52 | – | – | – | 42.6
GUGUACAGAGGAUAUACUCGAAUCUAGCGAAGCUAGGUUUGACAUGAGGAUCACCCAUGUAGAAGGCUGUACAC [Dot plot directed A] (puzzle: Exclusion 2) | – | – | – | 13.8 | – | –
ACGUGAUAUCUGUCGUUGGACAUGAGGAUCACCCAUGUGAGCUUUUUGCUCGUCUUAUAACCCGGUGACAGACCUUC [Aatbebeed] (puzzle: Sensor v3, turn-off variant 1) | – | – | 18.4 | 247 | 16.6 | –
AGAGAGUCAGGAUAUGACGAAGAGAACAUGAGGAUCACCCAUGUAGCUUCGUAAUUAUCGUCAGAAGGGACGAACU [JR_Ex5_Sub089] (Eterna round: R97, puzzle: Exclusion 5) | 15.7 | 14.2 | – | – | – | –
GACUGAACGUGGUCUGGUUACAUGAGGAUCACCCAUGUAGGUCUAAGAACAUGUCUUUUGUACGCUCGUCUUAUAUA [JR_SV3TOV1_Sub066] (puzzle: Sensor v3, turn-off variant 1) | – | – | 16.7 | 38.1 | 15 | –
AAAAAACAAGGAUAUACUAAGGAUGAUUAUCUUAAUUUUUGACAUGAGGAUCACCCAUGUAGAAGGUGUUAAAA [JR_Exclusion2_Sub007] (puzzle: Exclusion 2) | – | – | 98.9 | 47.5 | 41.2 | –
ACGUGAUAUCUGUCGGUGGACAUGAGGAUCACCCAUGUGAGCUUUUUGCUCGUCUUGUAACCCGGUGACAGACCUUC [Encetia] (puzzle: Sensor v3, turn-off variant 1) | – | – | 22.4 | 213 | 22.3 | –
AAUCCUAGCGUAAGGAUAUCAAAACUAUCCCGUUAUGAGAAGGUACAUGAGGAUCACCCAUGUUAAUGGGAUAA [BmEX4 A.19] (Eterna round: R97, puzzle: Brourd's mod of Exclusion 4) | 20.2 | 19.3 | – | – | – | –
AAACGGCGGAUCGUGGCUUUUUGCUCGUCUUGUGCUUCAACAUGAGGAUCACCCAUGUAGUGGUGAUCCGUUGUAAA [Grok-var2-17 mod JAL] (puzzle: Sensor v3, turn-off variant 2) | – | – | 25.8 | 26.7 | 42.1 | –
CAAAACAGAGGAUAUACAUUUCCUCACCGCCAAAUGGCGGAACAUGAGGAUCACCCAUGUAGAAGGCUGGAAAA [Gesous] (puzzle: Exclusion 2) | – | – | 292 | 114 | 118 | –
AGGGAUAAAGGAUAUACAUGAGGAUCACCCAUGUUGAGGAAAGUGAGAGGUGGCGAUAGUAGAAGGUUAGGUAG [JR_Exclu3_Sub082] (puzzle: Exclusion 3) | – | – | 86.8 | 78.8 | 137 | –
CAGUACUGAGGAUAUACAUGAGGAUCACCCAUGUGAUUUAGUGCACGCGUACGUGUACGUAGAAGGCAGUACUG [JL 3.27 m1] (Eterna round: R97, puzzle: Exclusion 3) | 182 | 20.8 | – | – | – | –
AAUUAACAAGCAAGAUCCUACAUGAGGAUCACCCAUGUGCUCGUCUUAUAAAGUACUAUCACGAAAGUGAUAGUACA [Mat - Sensor v3 - turn-off var 1 - Eli Mod - D57] (puzzle: Sensor v3, turn-off variant 1) | – | – | 217 | 357 | 197 | –
AAGUACCGUCACGAUAGUGAUGGUACAACAAGUGAAUGUACAUGAGGAUCACCCAUGUCCUCUUUUGCUCGUCUUAU [Sensor 3 - 92] (puzzle: Sensor v3, turn-off variant 2) | – | – | 151 | 30.9 | 184 | –
GUGUGCUGAGGAUAUACAGAGGAAGAUAAUAGAAUAGAAUGACAUGAGGAUCACCCAUGUAGAAGGCAGAGUGU [Excluse me!! 14 - Jieux - Exclusion 2] (puzzle: Exclusion 2) | – | – | 40.5 | 26.3 | 33.1 | –
CUCCGGCGUGUAGGAUAUGGUUCCGUUUAGGAUCCAGAAGGACAUGAGGAUCACCCAUGUACAUGUCGUCGGUCGUCACCGGGC [salish99_ExNG1_r04_212] (Eterna round: R96, puzzle: Exclusion NG 1) | 110 | 28.5 | – | – | – | 24.5
GUUAAUUGUCAGAUGGGUGACAUGAGGAUCACCCAUGUCACAAGCUUUUUGCUCGUCUUAUAAUUAACCCAUCUGAC [Stov1/11-A3] (Eterna round: R97, puzzle: Sensor, turn-off variant 1) | 13.6 | 13.3 | – | – | – | –
GGUUGGCGAGGAUAUACAUGAGGAUCACCCAUGUGUGAGAAAAAAGUGAGGAAGAAAAGUAGAAGGCGCUGACG [salish99_ex3_r3_007] (puzzle: Exclusion 3) | – | – | 30.2 | 70.7 | 62.1 | –
UAUAAUCGAGGAUAUACAUGAGGAUCACCCAUGUGUUGCCGCGUGAUGUGUUUGUCAGGUAGAAGGCGAUUAUA [Exclusion 3 - Mod of Jieux's Gilly Gone Silly 23 v.9] (puzzle: Exclusion 3) | – | – | – | 153 | – | –
CUUGUUUAUGUAGGAUAUGCCUGGCGUGCCUUUGCAGAAGGACAUGAGGAUCACCCAUGUAUUGCGGUCUGCGUUCAGAUCGCG [salish99_ExNG1_r4_043] (Eterna round: R96, puzzle: Exclusion NG 1) | 39 | 34.9 | – | – | – | 25.8
GCUUGCUUUUUGGUUUUCAACAUGAGGAUCACCCAUGUUCGUCUUGUGCUCGGGCUUGGGCGGUGUCCGGGUUUGGG [A 9%, less GC] (Eterna round: R97, puzzle: Sensor, turn-off variant 1) | 55.8 | 60.6 | – | – | – | –
AAGUACUACAAGCUUAGGGACAUGAGGAUCACCCAUGUUCGUCUUAUUGAUCUAGGUACGCUGACGUACCUAGAUCU [Mat - Sensor v3 - turn-off var 1 - JL Mod - D9] (puzzle: Sensor v3, turn-off variant 1) | – | – | 15.2 | 58.6 | 13.2 | –
GCCAGAGCAGGAUAUUCAUUAUAUCACAUGAGGAUCACCCAUGUCCAGCGAAAGCUGGAGGGAGAAGGGCUCUGGC [Fiskers Ex 5 - 24] (puzzle: Exclusion 5) | – | – | 102 | 225 | 140 | –
UGUUGUUCAGGAUAUGAUGUAUAAUACAUGAGGAUCACCCAUGUAGAUCCUGAAUUAACAUCAGAAGGGAAUGUUG [salish99_ex5_r4_102] (Eterna round: R97, puzzle: Exclusion 5) | 19.4 | 15.2 | – | – | – | –
GCUUCGGCAGGAUAUACAUGAGGAUCACCCAUGUGCUUCGGCUUGAUCAAGUUGAAGUGUAGAAGGGUUGAAGU [-25.5, -22.5 kcal, 26% A, 3 bis, 3 bis] (Eterna round: R97, puzzle: Exclusion 3) | 36.8 | 78.7 | – | – | – | –
AGUACUUACUCGAUAGUGUUAGUACAAUAAGCUUGUGAAACAUGAGGAUCACCCAUGUCCUCAUAAGCUCGUCUUAU [salish99_TOv2_r3_1005] (puzzle: Sensor v3, turn-off variant 2) | – | – | 17.6 | 627 | 15.8 | –
GUUAAGGUAGGAUAUACGAGAAUAUAGGGUAGAUAUAUAACACAUGAGGAUCACCCAUGUAGAAGGACCAAUUG [Mat - Exclusion 2 - Mod of my Tesla design - D57] (puzzle: Exclusion 2) | – | – | – | 33.1 | – | –
